Values quoted from earlier work in paper PMC8542695.

Columns and labels:
p53 (Homo sapiens) = p53 (Homo sapiens) (UniProt P04637)
[1] = biological target: annexin A2 (ANXA2) (Homo sapiens) (UniProt P07355)
[2] = biological target: non-muscle myosin 2A (NM2A) (Homo sapiens) (UniProt P35579)
non-muscle myosin 2A (NM2A) (Homo sapiens), sequence (P35579 2-1960): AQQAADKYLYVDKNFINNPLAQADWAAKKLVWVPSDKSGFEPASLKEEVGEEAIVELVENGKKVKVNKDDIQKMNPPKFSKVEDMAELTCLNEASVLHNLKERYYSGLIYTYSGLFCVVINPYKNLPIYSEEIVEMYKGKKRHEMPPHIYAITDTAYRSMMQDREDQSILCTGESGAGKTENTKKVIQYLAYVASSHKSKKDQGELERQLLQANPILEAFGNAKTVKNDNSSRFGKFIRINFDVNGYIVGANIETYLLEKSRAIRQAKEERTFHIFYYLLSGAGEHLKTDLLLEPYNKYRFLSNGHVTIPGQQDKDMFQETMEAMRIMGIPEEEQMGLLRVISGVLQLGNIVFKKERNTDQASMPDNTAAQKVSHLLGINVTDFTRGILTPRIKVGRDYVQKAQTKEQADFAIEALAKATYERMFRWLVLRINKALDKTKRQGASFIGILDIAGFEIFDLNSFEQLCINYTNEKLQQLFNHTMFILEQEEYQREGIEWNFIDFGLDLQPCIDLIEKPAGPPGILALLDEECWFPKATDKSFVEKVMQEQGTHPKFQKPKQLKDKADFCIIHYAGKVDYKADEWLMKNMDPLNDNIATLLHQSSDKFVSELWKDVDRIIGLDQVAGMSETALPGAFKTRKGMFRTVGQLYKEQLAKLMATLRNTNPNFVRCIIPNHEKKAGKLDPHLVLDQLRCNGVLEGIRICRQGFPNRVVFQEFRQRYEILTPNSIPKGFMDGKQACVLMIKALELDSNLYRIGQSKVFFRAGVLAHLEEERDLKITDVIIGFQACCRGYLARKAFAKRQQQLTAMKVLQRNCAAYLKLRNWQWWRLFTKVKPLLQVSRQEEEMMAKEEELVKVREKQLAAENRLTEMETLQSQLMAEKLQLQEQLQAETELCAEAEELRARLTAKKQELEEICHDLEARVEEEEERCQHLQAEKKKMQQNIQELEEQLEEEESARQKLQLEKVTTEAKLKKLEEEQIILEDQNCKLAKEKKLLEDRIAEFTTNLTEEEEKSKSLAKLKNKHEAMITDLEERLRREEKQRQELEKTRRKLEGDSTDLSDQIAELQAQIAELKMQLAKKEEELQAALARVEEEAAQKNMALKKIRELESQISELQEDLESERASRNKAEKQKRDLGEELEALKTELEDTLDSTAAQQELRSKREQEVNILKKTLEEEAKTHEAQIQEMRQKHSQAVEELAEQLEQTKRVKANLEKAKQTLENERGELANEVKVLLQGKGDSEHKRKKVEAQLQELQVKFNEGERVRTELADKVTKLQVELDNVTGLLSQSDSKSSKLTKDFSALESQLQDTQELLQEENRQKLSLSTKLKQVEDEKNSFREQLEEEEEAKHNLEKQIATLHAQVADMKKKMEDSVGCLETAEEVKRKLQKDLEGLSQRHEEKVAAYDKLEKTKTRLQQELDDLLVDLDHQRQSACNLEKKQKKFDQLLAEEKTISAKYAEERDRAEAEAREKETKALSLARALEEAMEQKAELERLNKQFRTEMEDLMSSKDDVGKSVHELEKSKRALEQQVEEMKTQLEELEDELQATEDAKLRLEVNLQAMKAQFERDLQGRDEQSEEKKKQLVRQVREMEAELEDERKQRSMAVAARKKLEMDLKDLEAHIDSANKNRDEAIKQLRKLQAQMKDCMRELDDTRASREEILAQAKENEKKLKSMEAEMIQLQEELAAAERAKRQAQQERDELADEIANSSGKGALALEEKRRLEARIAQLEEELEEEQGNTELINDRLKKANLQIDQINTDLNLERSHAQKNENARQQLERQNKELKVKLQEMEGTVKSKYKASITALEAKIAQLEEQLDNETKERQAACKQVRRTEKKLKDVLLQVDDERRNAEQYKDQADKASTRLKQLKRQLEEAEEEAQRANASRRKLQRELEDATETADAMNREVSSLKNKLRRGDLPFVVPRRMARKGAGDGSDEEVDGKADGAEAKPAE

S100A4, sequence (P26447 2-101): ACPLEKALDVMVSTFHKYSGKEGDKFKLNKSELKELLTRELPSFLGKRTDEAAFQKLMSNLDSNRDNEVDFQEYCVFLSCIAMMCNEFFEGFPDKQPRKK
annexin A2 (ANXA2) (Homo sapiens), sequence (P07355 2-339): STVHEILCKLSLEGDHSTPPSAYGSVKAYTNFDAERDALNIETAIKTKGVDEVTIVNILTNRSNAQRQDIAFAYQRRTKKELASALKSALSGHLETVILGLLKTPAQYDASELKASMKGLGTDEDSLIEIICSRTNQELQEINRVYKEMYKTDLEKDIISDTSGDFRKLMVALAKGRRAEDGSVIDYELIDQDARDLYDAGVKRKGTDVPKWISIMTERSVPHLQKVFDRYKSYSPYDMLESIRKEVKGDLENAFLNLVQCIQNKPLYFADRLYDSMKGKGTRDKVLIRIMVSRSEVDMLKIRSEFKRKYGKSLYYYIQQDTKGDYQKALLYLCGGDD
p53 (Homo sapiens), sequence (P04637 whole entry): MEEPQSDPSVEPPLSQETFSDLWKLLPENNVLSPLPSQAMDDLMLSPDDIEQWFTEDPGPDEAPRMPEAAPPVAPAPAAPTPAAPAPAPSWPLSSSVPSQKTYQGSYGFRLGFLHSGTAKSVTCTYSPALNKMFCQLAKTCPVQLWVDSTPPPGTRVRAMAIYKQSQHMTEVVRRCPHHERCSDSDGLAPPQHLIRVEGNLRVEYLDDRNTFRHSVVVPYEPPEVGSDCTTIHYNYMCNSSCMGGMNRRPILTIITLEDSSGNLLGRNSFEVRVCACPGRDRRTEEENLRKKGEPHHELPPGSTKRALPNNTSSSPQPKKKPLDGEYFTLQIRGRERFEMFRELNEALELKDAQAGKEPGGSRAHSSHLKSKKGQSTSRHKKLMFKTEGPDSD

Kd (p53 (Homo sapiens)): 2 µM | Kd [1]: 2 µM | Kd [2]: < 0.001 µM
Substance: S100A4 (from UniProt P26447)
